# According to PMC7544203:
# Assays:
# YTHDC1 YTH domain [1] = biological target: T1, YTHDC1 YTH domain (Homo sapiens, UniProt Q96MU7 345-509); experiment: ITC
# YTHDC1 YTH domain [2] = biological target: T1, YTHDC1 YTH domain; experiment: X-ray crystallography
Binder,binding result (YTHDC1 YTH domain [1]),further results
"CGCGGACTCTG (ssDNA, N6-methyladenine at A6) [11-nt N6mA ssDNA]",,Kd (YTHDC1 YTH domain [1]): 10 nM
"CGCGGACTCTG (ssDNA, none) [unmodified 11-nt ssDNA]",no binding,
"CGCGGACTTC (ssDNA, N6-methyladenine at A6) [10-nt N6mA ssDNA]",,binding result (YTHDC1 YTH domain [2]): binds
"CGCGGACUCUG (ssRNA, none) [unmodified 11-nt ssRNA]",no binding,
